The values below are quoted from earlier work in PMC3971948.

The data set concerns the target Asp85 (UniProt position 98, WAQYADWLFTT). To be noted: Initial unphotolysed BR state of the R82Q mutant.

For the substance “Bacteriorhodopsin R82Q (Halobacterium salinarum; R82Q)”, the pKa result is recorded as “up to ∼7”.
